8 molecules from paper PMC10036535, “A naturally occurring mini-alanyl-tRNA synthetase” can be followed below.

Data set [1] has as its system TuAlaRS (Tupanvirus (of Acanthamoeba castellanii)). As to the kind of experiment: EMSA. As to conditions: none (in vitro transcript). (A gel shift assay detects complexes by their altered migration in electrophoresis.)
The target of data set [2] is T1, EcAlaRS (Escherichia coli, UniProt P00957 1-876).
T1 sequence: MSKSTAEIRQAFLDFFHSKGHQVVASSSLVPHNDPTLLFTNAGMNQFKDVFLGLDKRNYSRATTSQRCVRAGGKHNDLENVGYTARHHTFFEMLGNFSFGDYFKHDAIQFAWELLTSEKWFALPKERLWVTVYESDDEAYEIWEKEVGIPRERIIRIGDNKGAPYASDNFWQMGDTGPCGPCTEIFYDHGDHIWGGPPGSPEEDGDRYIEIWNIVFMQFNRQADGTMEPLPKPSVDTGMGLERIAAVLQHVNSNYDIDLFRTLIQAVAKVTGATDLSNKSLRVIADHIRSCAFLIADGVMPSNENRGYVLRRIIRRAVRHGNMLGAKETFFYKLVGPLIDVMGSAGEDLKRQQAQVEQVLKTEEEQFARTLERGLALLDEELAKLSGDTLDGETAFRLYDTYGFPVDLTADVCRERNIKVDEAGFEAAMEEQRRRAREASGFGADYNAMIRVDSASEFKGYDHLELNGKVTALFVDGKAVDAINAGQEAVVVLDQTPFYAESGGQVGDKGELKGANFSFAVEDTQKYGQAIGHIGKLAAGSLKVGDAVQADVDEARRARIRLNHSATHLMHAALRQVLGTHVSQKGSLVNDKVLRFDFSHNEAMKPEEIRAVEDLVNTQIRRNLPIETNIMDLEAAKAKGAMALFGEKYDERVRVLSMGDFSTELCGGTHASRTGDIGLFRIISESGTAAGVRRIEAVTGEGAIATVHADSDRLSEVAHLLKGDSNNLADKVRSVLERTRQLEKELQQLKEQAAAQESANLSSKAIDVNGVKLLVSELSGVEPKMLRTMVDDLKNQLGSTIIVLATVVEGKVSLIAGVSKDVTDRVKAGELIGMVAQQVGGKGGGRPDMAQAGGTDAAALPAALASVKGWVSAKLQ
As to the kind of experiment: EMSA; 5 mM Mg2+; hardly affected vs WT; EMSA: 20 mM HEPES pH 7.5, 20 mM KCl, 5 mM MgCl2, 2 mM DTT, 0.1 µM RNA, 10 min on ice, protein 0.0625-32 µM; 5% native PAGE, 0.5x TBE, 4 °C. As to conditions: protein: recombinant; label: 5'-32P; tRNA cloverleaf.

Data set [3] addresses T1, EcAlaRS. The data set is described as follows: EMSA; 5 mM Mg2+; EMSA: 20 mM HEPES pH 7.5, 20 mM KCl, 5 mM MgCl2, 2 mM DTT, 0.1 µM RNA, 10 min on ice, protein 0.0625-32 µM; 5% native PAGE, 0.5x TBE, 4 °C. The following applies: protein: recombinant; label: 5'-32P; tRNA cloverleaf.

Numbering of substitutions follows the chain as printed.

“GGAGCUAUAGCUUCUAGCUCCACCA [Ec-microAla A3:U70]” gave a Kd fold increase vs WT (fold increase in Kd vs WT) in data set [1] of 3.
The term Kd denotes the equilibrium constant for the complex coming apart. The molecule GGGGCUAUAGCUUCUAGCUCCACCA [Ec-microAla] yielded a Kd in data set [1] of 300 nM.
In turn, GGGAUUUUAGCUUCUAAUUCUACCA [Ce-microAla] returned a Kd in data set [1] of 400 nM.
For the molecule “GGGGCUAUAGCUUCUAGCCCCACCA [Ec-microAla G3:C70]”, in data set [1], the Kd fold increase vs WT (fold increase in Kd vs WT) turned out to be 3.
Molecule “GGGGCUAUAGCUCAGCUGGGAGAGCGCCUGCUUUGCAAGCAGGAGGUCUGCGGUUCGAUCCCGCAUAGCUCCACCA [EctRNAAla]” displayed an equilibrium dissociation constant (Kd) in data set [1] of 300 nM.

B1: EctRNAAla CCA to UUG (structured_RNA)
RNA: GGGGCUAUAGCUCAGCUGGGAGAGCGCCUGCUUUGCAAGCAGGAGGUCUGCGGUUCGAUCCCGCAUAGCUCCAUUG
modifications: none (in vitro transcript)
For the molecule B1, the binding result with EcAlaRS [2] is recorded as “binds”.

B2: EctRNAAla (structured_RNA)
RNA: B1 RNA with U74C, U75C, G76A
modifications: none (in vitro transcript)
Consider B2, for which the Kd with EcAlaRS [3] was 1000 nM.

B3: EctRNAAla delCCA (structured_RNA)
RNA: GGGGCUAUAGCUCAGCUGGGAGAGCGCCUGCUUUGCAAGCAGGAGGUCUGCGGUUCGAUCCCGCAUAGCUCCA
modifications: none (in vitro transcript)
Regarding B3, the binding result in the data set with EcAlaRS [2] is “binds”.
